Our source for the Kd values is PMC7580981.

In this test the target is IBV polymerase trimeric complex (Pol3): PA-His, PB1, PB2 (influenza B virus). Nature of the test: SPR. Particulars: natural protein.

In general, Kd refers to the constant that tells how readily two partners part at equilibrium. Substance chicken ANP32A, purified (GST cleaved) returned a Kd of 133 nM.
